Measured values reported in FireProtDB (doi:10.1073/pnas.90.18.8367).

Conditions: Enterobacteria phage fd; pH 7; 25 °C; GdnHCl; CD; MOPS 50 mM; NaCl 100 mM; reversible: yes; whole UniProt chain shown

B1: DNA-Binding protein G5P wild type, P69542 (protein)
chain: MIKVEIKPSQAQFTTRSGVSRQGKPYSLNEQLCYVDLGNEYPVLVKITLDEGQPAYAPGLYTVHLSSFKVGQFGSLMIDRLRLVPAK
unfolding free energy: 9 kcal/mol
